Assay: soluble fraction after stress (log2 fold change); higher = more stays soluble; pooled small domains, quantitative proteomics
Conditions: stress: 50 degC
Outline: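 Pooled custom libraries of small protein domains were measured in a high-throughput format, with quantitative proteomics as the read-out. Each library was stressed at 50°C. Aggregation propensity is given as the base-two logarithm of the fold change in how much of each protein stays soluble after the stress. Higher values mean a larger share of the protein remains in solution.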

In order of rising “soluble fraction (log2)” value:
1. HMGDERDRLLLARGKRIYQELIGSDRENVAAALREFEAVLAVNNRRAIHVMRQRLAELFGVYEEFLNEEFL  -2.77
2. HMTSHSFVITEEVGQRLDRFISDQLDTVSRTMIQKHIRSGAVVVNGKQVKSNYLLVLNDRINIALK  -2.64
3. HMGIMSEITHRVLRLLGLLESRSTWTGSDLAERLGVTQRTIRRDVIRLRELGYQVDSVQGLDGGYRMS  -2.48
4. HMPGRLSRREVEVIELTARGLPAAEMAVRLGISANTIEFHRRRIMQKLGVANAAEMVRRATELGW  -2.1
5. HMIVVLKHGVTEQQMRNLIAWFKDQGVDVHVSRGIYQTVLGLVGDTSDIDVDLLRMLDIVDAVKRIT  -1.76
6. HMSFRYLHVKRQLMSLIGTMNAHERLPSRTDLSETFQVARTTIERAISELIGEGWLYARDGSGTYVAER  -1.66
7. HMPEMHIYTKEGKIHITHIDENEEIKIYNPLGQIIYTGSPQDIPVLEGKGLYIIYIGKSAVEVLES  -1.65
8. HMQNYLLFEEAKNIVNTLNLTNEKDWSEFIKKDFTYKNQIPIFPNQYYKHKGWVDWNDWLGINK  -1.56
9. HMILPKFNQLLGQMGENIKLARKRRKLTAVQVSERAGIARSTLYLIEKGDASVSLGAYFNVLRVLG  -1.46
10. HMKHYMKITDISLQTRDKNRVNVSVDGKYRFSLDVFQVGELGLKVGREYTDEELTALEDESQFG  -1.41
11. HMGTTIAMSKLKQVLRWKEEGYSNRKIAQLVGLNKETVNNYISRANADSLSQKELLQLDDFVLDIRLRG  -1.32
12. HMKTELAYDFHSRIRDARIREGLSQVDLAKRMNEKIAVIQKAENGIRPTDSLIAKFSKALSVELYVE  -1.26
13. HMNQYRKLDGDVQNQIIYILSEYPKLPATIVYQRLLDTNTIVKKDVSLSTVNRFVQKYKDSKGIT  -1.05
14. HMGDFNYVMPDFRGLEAHDVSSFLNRNGFLLRPTEHEVSFTQRPGLILMHYPEPGYPFSRSSPITLVVS  -1.03
15. HMREELIALYRAIARLSEDEQELLNLFYFARRPLSEIAQLTGMTPGAAKTRLYRARRHLRREMEEDGYG  -0.986
16. HMGVIDTLSGPQKAAAILVAIGRPSASRLLKHFNAEDLRKLAGHARTLEPISPLDFEHLVKQFEDSFAEG  -0.798
17. HMRSWRDQRVDDLLAAVSELGMTMSRAAAGDLLDQRVEYVANQMRVTPATARKYLTEETLAGMAREIVFG  -0.693
18. HMEPALYRLFMAHPELNASAVARRLGIAQSLLAQYISGSKKPSPERERMILTEIHKIGEELATAS  -0.65
19. HMVGLTDLQRNVLVQIARGKSRQLISRTLKVTPAEISAALKVAQRRYRVASSTEVIVQALYDKTLSFHEIM  -0.625
20. HMSRSSQMVNFIRLLSQEKKVSVNSIFSSSVQLSDGIIVKINDFYYRVNLSLDQKTYSLVEVS  -0.486
21. HMLRTEYLTVNYAKASEVAELVTASGFLSSRGSITVDERTNTLLLQDTATNIDEVRFMLEQLD  -0.443
22. HMDGYTAVDKAVSDQYYTKENQLYFVSMGNFFSLGAKKIEGADISSFQILTTEYARDLQHLYFNGKV  -0.383
23. HMKMSVKNEIISLLEKNRDTSISGQVIADSLNVTRAAVWKAIKVLKEEGYNIDGTPNKGYILLGNN  -0.368
24. HMPLSLESVSEGGRNDTAARIAGYLIAKGLNVDFARFFLQSWNTKNKPPLDDTEIDTIVNSIMKTHERKNQ  -0.361
25. HMLDQSYYETANEIISRYPLEEKSLIPIIQDIQATYRYLPPDLLDYVAKKIGITETKAYSVASFYENFSF  -0.327
26. HMDDLIIQIELKQEGLEITGLKVLLKEDSVIDEQVKQTIRRKIERFLVNLYGNPNVYVSKFSMGI  -0.325
27. HMGIIQAQIPGLVSRLFVKKGDKVAVNQRLFILEAMKMENEIDSPIQGMVEKIHITTGSKVEKGDLIMEIV  -0.323
28. HMSGEDYLERILMLKEKHGNVRAIDIANSMNFSKPSVSIALHKLSENGYVVIQNNGAIELTEKGLEVAT  -0.315
29. HMGTLNLSQAYREWGMAEIEANRDYYGPVRFDDIAFQMSPAGQQLQARFVASYADRLHDAIEGEL  -0.304
30. HMVRSLADQVYERLRRNIVSGDLAPNARIVELDIAAQMGTSQGPVREALQRLEREGLVQRRAHSATFVTD  -0.279
31. HMKIEEVIEKLKTDSIISRKEYEDIVRQINPNLSDRTIFWQLAKLQDMGVLQKIGQNSFHVRN  -0.26
32. HMTDAELDLLTPREQEVLQLIARGYLYKEIARRLGISVKTVEAHASSVLRKLQLSTRHELSHWAAQRH  -0.258
33. HMSPRQVTAVRSGSPMPVLPGEDWRLYDASGALVARGSGAAPIPKSTGLLRLNSEGLDGLADRWIWVL  -0.255
34. HMADLTEEQKTLFRLIRDLQPVSSKTLLENSGFTRSTQTRLLNGLIEKQIVIRTGNGPATRYSLR  -0.246
35. HMSGENAVLTEGTMVTVRRGGETITATARKETVKQFLSRMDIIPGSREMVGIELMENSVMLTISD  -0.227
36. HMQQNDMTELRALAEKIISENDSVINDYKSGQGSALQFLIGQAMKETKGSANPQVISEIFTDLL  -0.225
37. HMFKINQKVKLIAPLPYLKTSENMPMLRPPDLVAIDEIGEVLSLKSPETVEVRFRRGSFLIDIDKLEKVD  -0.219
38. HMSGAERAAALLVALGPEVASEIMKFLDDESIQKLASEIAKIEVLSPQEKEDLIGQFLLELKKT  -0.214
39. HMERLSVSMGDMVVFVRDAVEAFRGLVKEKGITLTFESKVEHFYMNYDHDKVYKVVNNLLSNAVKFT  -0.209
40. HMYVYEPGEFAVRGSILDVYSYASEFPYRIDFFGDDVESIRTFEVQTQLSKEAKDRVSIVPDTEQ  -0.181
41. HMLRLLEIIAGNEVSKEINSQVIKYYKALKNKKIEEINNLTPSYNKLIISFDLKKKNFREMKKIIEDISIN  -0.162
42. HMQDIDIVDLKRISELIYQKYNYDFRNYAMSSFKRRVQRIIELKKLTVDGLIKRLNDTPSFINEFLDELTV  -0.139
43. HMKAQVKSVLDEIPGVGPTRRKALMKHFTSIEEIKQAEFETLLEAEGMNRAAAQSVYDFFHN  -0.138
44. HMPSEDELAERLRGAIRQGDILNEGRMPPERALAEHFGVSRARLRLALGLLQEDGTIYRRHGQGTFAT  -0.132
45. HMLDKRSHAKKVLDAIEAVILGRATNDQLAYTINGRSLQKTPLPDLLRLRSQYQAEYQRELRAERIRKG  -0.131
46. HMVEPIKAPMPGMVLKILVEPGQQIEKGQGVLILEAMKMENVLKSSAAATVKSIKVSEKSAVEKGAILVEL  -0.109
47. HMGTVIGMGRITAGGVNFRETEGGGVIEKLERDTLVEVLTVPSVIDTTHWYQVRYNNRTGYVQAPFVQLLG  -0.0951
48. HMSYFIFDGVLNLGKQYELKGEESSHITKSRRLRPGDSFLIQDQEGQRFEAILKSFDRNSLIFTPHKPTA  -0.0922
49. HMGISGSDLEKMIRNILVNNTDVVETIKSGQDKKGKKQKFLQGLIMKEARGQTDPREAASLLAKLLE  -0.0715
50. HMLSAQEIPVEDIATRDFVLAEDVVSAKKVLLLPKGVDLSWFGSAKKRLVQRLKSEGVTHIRVFA  -0.0541
51. HMDAIDPKTVTSWADLWKPEYKSSLLLTDDAREVFQMALRKLGYSGNTTDPKEIEAAYNELKKLMPNVAAF  -0.0387
52. HMDYENGTVKWFNTKKGYGFITRENGEDLFVHFRNIKGRGRRSLNDGEPVTFVVIEGDKGLQADQVSA  -0.025
53. HMRSAKLPYSEFLKLVDTDKVNDVSIVGRTISGHLDDGSKFSTYTPPNDPNIIEKLSSHNVIINSAPE  -0.0117
54. HMQENDLGAVEKIVDDVLHDPKNAQAVADFKAGSEKVLGFLTGQVMKASRGKANPSVVQEVLRQKLKN  -0.00966
55. HMTDIVPNLIGKSLKDAIQSVEKSNLKAIFDGHGIVVSQQPRPGSPIPARKIMKVTLSPDYR  0.011
56. HMKNPLIIGMTKDKIIELIGMPDNIKFLDSSLSKSEVWNYDKFGKKLYIKDEKLYQIENIEE  0.016
57. HMLDDDAGMIQAILRKAPGHYLPLHDKSDPASIQAQLGISKAQFKRAVGTLMKQGLIRQVKGDGLYLTQ  0.0324
58. HMGTKDVNAAPSAVGRTYDEAIEILNGYKAGYLEEYSDTVPKGTVISQSVQDGQVVIVVSLGPKPS  0.0391
59. HMGTQKVQVVNGPINVRSGPGPTFEKIGMVEDQAVYQVVSKKDDWFQISLPGNKTAWVAGWLVKEIK  0.0417
60. HMKNNNIIFSEFLKEVENGRVVEVRIQGNNIQGIMSNGKEFTTYSPNYPNLIEKLTETGVSISAAPL  0.0449
61. HMSIDNALLTLIGKTGTAQTVLRPSGKVVIGDEVYDAVTAGEFIDKGSAIVVTRVEATQLYVEASEA  0.0555
62. HMTPKVDLTVAEDGSASAVIAGLRVEIDAAGKVTAVAPADGTTDLSSVAPEAVKEAMDNALAAYTASKG  0.0555
63. HMLSADLLDKIQRIDSLEQQGKYAQAEKEARALLSDPSITPSERASVQNILSSIARKKAAQAQ  0.11
64. HMAPPTAEFFAHLPAEALSAVRRSVEEGNARGIDEAILRVETLDGEAGRVLRGLAARYEYGRILELTQR  0.117
65. HMDPTVEENKLNPRDLLIIQRVKEGRTNKEIAEELNVAEITVKKQLSSLYQRYKVHNRNQLLLALD  0.117
66. HMDRPLRTKEHFARFAGEQVVVKTSSPIDGRSSFTGTLEGMEGDDVIVEVDGSRIAIGYSLIKRAHVVG  0.117
67. HMDEYTREQFVADMEEGRVREVTIHPNSEVPTGYIRVELANGADMKLYVTDIVEAEELVRSYGFDPPVRDV  0.128
68. HMGMSENIDKVAGGIPYKVEGNKAIINEPLDDATKERLMGKAKEHGYHAAPNQAGGITITLK  0.134
69. HMDRDPAEAGYDDGYLSGNTDGMNNDERATYDESSQYPTPDERQSYAAAYRRGYAAGFADGRKQAV  0.134
70. HMGTGTYQVWSANGLGVRMRSGPGTGYRILAVYSVGTSVTVLQKGAYWSYIRVGSRTGYMMNQFLVSG  0.139
71. HMVLGDQTFQSASAPKVFFGGDAAYGPKNIITAVAHGHDAAVSIDRFLHGEDVSKRPGPQVNLVS  0.144
72. HMTSLTDDELSVVMLVREREISFDEITSETGFDAARLNSVLTMLKIKGIIDETTGKHYRISGGA  0.146
73. HMKKPLEYIDVDKREDFPPVPNGMRYIHFYGGTKNYRAYIAPEDISRADFMEQYPEYVPEHN  0.184
74. HMVDERMVTYINSLDKGNTPFLNELEKEALANYVPIIRREMQSFLKVLLQIKAPLRILEVGTAVGFSTILM  0.199
75. HMSAIKSVTTQLDNTKLRTGPDVSYQYTQSYPANTKLTYINKSGTWYQVKDADGNTGYVASWVVTPSE  0.236
76. HMLSRTYDSSGPDVKIRGTAQTVADKYMSLARDAQSSGDRVMAENYLQHAEHYNRIIAAAQAQ  0.254

From the domain aggregation screens of Martell et al. (2025)
